Assay results from publication PMC8670242, “Functional Characterization and Structural Insights Into Stereoselectivity of Pulegone Reductase in Menthol Biosynthesis” (Frontiers in Plant Science, 2021).

Biological target: the molecule itself
Test: SEC; gel filtration of purified wild type MpPR on HiLoad 16/60 Superdex 200 in 10 mM Tris-HCl pH 8.0, 50 mM NaCl, 5 mM MgCl2, 1 mM DTT; molecular mass calibrated with high and low molecular weight calibration kits

B1: (+)-pulegone reductase from Mentha piperita (enzyme)
chain: MVMNKQIVLNNYINGSLKQSDLALRTSTICMEIPDGCNGAILVKNLYLSVNPYLILRMGKLDIPQFDSILPGSTIVSYGVSKVLDSTHPSYEKGELIWGSQAGWEEYTLIQNPYNLFKIQDKDVPLSYYVGILGMPGMTAYAGFFEICSPKKGETVFVTAAAGSVGQLVGQFAKMFGCYVVGSAGSKEKVDLLKNKFGFDDAFNYKEESDYDTALKRHFPEGIDIYFDNVGGKMLEAVINNMRVHGRIAVCGMVSQYSLKQPEGVHNLLKLIPKQIRMQGFVVVDYYHLYPKFLEMVLPRIKEGKVTYVEDISEGLESAPSALLGVYVGRNVGNQVVAVSRE
notes: (+)-pulegone reductase, Mentha piperita, UniProt Q6WAU0; gene cloned into pET28a with NheI and HindIII; also called MpPR; wild type MpPR; source: E. coli BL21(DE3), purified (Ni-NTA, gel filtration on Superdex 200)
**Q.** For B1, which “stoichiometry N” value is on record?
**A.** The value was 2.
